Assays:
[1] = biological target: T1, murine BTLA (murine, UniProt Q7TSA3 30-183, limits assumed); test: sheet shows OD:450nm against Log:ng/mL (ELISA-type readout); the text describes a Fortebio/biosensor assay with BTLA coupled to a chip
T1 sequence (looked up): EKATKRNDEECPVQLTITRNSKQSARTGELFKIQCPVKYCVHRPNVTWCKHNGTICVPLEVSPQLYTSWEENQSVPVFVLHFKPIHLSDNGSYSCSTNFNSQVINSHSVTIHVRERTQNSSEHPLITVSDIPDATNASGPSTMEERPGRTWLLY

[2] = biological target: T2, hBTLA (human BTLA protein coated on plates or coupled to a chip) (human, UniProt Q7Z6A9 31-157, limits assumed); test: ELISA, hBTLA coated at 0.5 µg/mL, anti-human IgG4-HRP detection
T2 sequence (looked up): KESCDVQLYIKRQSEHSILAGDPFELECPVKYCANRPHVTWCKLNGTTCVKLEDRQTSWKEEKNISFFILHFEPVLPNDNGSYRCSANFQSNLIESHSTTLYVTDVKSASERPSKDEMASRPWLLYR
Procedure: The binding specificity of the humanized antibodies to hBTLA was determined by conventional ELISA method. A 96-well microplate was coated with 0.5 μg/mL hBTLA and incubated at 37° C. for 60 minutes. The solution in wells was then discarded, and the wells were washed 3 times with washing buffer, and blocked for 60 minutes with PBS containing 2% BSA. After being washed 3 times with washing buffer, the wells were added with gradiently-diluted antibodies, incubated at 37° C. for 60 minutes, and washed 3 times with washing buffer before adding a HRP-labeled mouse anti-human IgG4 secondary antibody diluted at 1:10000. The mixture was incubated at 37° C. for 1 hour, washed three times with washing buffer, and added with 100 μL of TMB substrate solution for color development at room temperature for 30 minutes, then the reaction was stopped with 100 μL of 2M hydrochloric acid solution and the absorbance was read at 450 nm.
The humanized antibodies hu17, hu18, and hu19 can specifically bind to hBTLA.

[3] = biological target: T3, human BTLA expressed on cells (human, UniProt Q7Z6A9 31-289); test: FACS on 293F cells expressing hBTLA
T3 construct: whole, on cells
Procedure: The humanized anti-BTLA antibodies were determined for their binding ability to hBTLA expressed on cells using cell-based flow cytometry (FACS). […] Then the cells were mixed with 50 μL of antibody diluent at different concentrations (initial concentration: 10 μg/mL, 3-fold titration), and incubated at room temperature for 30 minutes. After being washed with an FACS buffer twice, the cells were added with 100 μL of goat anti-human IgG-PE antibody, incubated for 30 minutes away from light, and assayed by FACS after two washes with an FACS buffer. The washed cells were resuspended in 4° C. buffer containing propidium iodide (PI) and 0.02% sodium azide that prevents receptor internalization and analyzed by flow cytometry. Viable cells were gated on the basis of PI positive cells being excluded from the FSC/SSC gate and their geometric mean fluorescence intensity was measured. The data were analyzed using a sigmoidal dose-response model within Prism™ software.
The humanized antibodies hu17, hu18, and hu19 can effectively bind to hBTLA on 293 cells.

[4] = biological target: T4, recombinant protein of human BTLA extracellular domain (hBTLA-ECD-FC) (human, UniProt Q7Z6A9 31-157, biotin-labeled in the FACS blocking assays (site not stated)); test: SPR, Biacore T200, BTLA-Fc amine-coupled to chip, antibody as analyte, 1:1 fit
T4 construct: extracellular domain; also called BTLA-Fc; biotin-labeled hBTLA; not shown: Fc of the self-constructed HX1-FC expression plasmid
T4 sequence (looked up): T2 sequence (looked up)
Procedure: The assay was carried out using a Biacore T200 instrument (GE Healthcare). Series S CMS chip was loaded on the instrument and the system buffer used was HBS-EP+(10 mM HEPES, pH 7.4, 150 mM NaCl, 3 mM EDTA, 0.05% surfactant P20). The BTLA-Fc antigens were coupled in a chip detection channel: injecting a mixed solution of 400 mM EDC and 100 mM NHS at 10 μL/min for 420 s to activate the surface of the chip, diluting the BTLA-Fc antigens in a 10 mM sodium acetate/acetic acid (pH 5.5) buffer to a final concentration of 20 μg/mL and injecting at 10 μL/min for coupling, and injecting a 1M ethanolamine-hydrochloric acid solution (pH 8.5) at 10 μL/min for 420 s for blocking.
Antibodies were diluted in a 2-fold gradient with Biacore system buffer for a total of 6 concentration points. Concentration gradients were 24 nM, 12 nM, 6 nM, 3 nM, 1.5 nM and 0.75 nM, with 24 nM being a replicate. Data were analyzed using Biacore T200 Evaluation Software (version no. 3.0, GE Healthcare). Data were fitted using a model of 1:1 Binding. The kinetic constants of the binding of the antibodies to the antigens, namely, the association rate constant ka (1/Ms), dissociation rate constant kd (1/s) and the affinity constant kd (M), were obtained by fitting, and the results are shown in Table 8.

[5] = biological target: T3, human BTLA expressed on cells; test: cell-based or functional assay
[6] = biological target: T4, recombinant protein of human BTLA …; test: FACS, blocking of biotin-labeled hBTLA binding to hHVEM-293F cells
Procedure: Then the cells were mixed with previously biotin-labeled hBTLA (1 μg/mL) protein, incubated at 4° C. for 15 minutes, followed by mixing with 50 μL of humanized antibody diluent (initial concentration: 5 μg/mL, 3-fold titration) at different concentrations, and incubating at room temperature for 30 minutes. After being washed with an FACS buffer twice, the cells were added with 100 μL of goat anti-human IgG-PE antibody, incubated for 30 minutes away from light, and assayed by FACS after two washes with an FACS buffer. The washed cells were resuspended in 4° C. buffer containing propidium iodide (PI) and 0.02% sodium azide that prevents receptor internalization and analyzed by flow cytometry. Viable cells were gated on the basis of PI positive cells being excluded from the FSC/SSC gate and their geometric mean fluorescence intensity was measured. The data were analyzed using a sigmoidal dose-response model within Prism™ software.
The […] antibodies hu17, hu18, and hu19 can effectively block the binding of human BTLA to HVEM on the cell surface.

B1: humanized antibody hu17 (antibody, V domains shown)
VH: QVQLVQSGAEVKKPGASVKLSCKASGYNFKHTYAHWVRQAPGQGLEWIGRIDPANGNTKYDPKFQGRATMTADTASNTAYLELSSLRSEDTAVYYCVADHYGSSLLDYWGQGTLVTVSS
VL: DIVMTQTPLSLSVTPGQPASISCKSSQSLLDSDGKTYLNWFQQRPGQSPRRLIYLVSKLDSGVPDRFSGSGSGTDFTLKISRVEAEDVGVYYCWQGTYFPYTFGQGTKLEIK
notes: also called hull [sic]; humanized antibody 17
[1]
  binding result: no binding (tested: 1000 ng/mL)
[2]
  EC50: 0.0063 µg/mL
[3]
  EC50: 0.0967 µg/mL
[4]
  Kd: 0.186 nM
  koff: 0.000116 s⁻¹
  kon: 624000 M⁻¹ s⁻¹
[5]
  EC50 (luciferase reporter, T cell activation): 0.257 µg/mL
[6]
  IC50: 0.143 µg/mL

From patent publication US20210246209A1 (SHANGHAI JUNSHI BIOSCIENCES, published 2021)
